According to US8722622B2, “FGF21 conjugates and anti-diabetic uses thereof” (COVX Technologies Ireland, Limited, priority 2010, dated 2014):
Numbering of substitutions follows the chain as printed. Numbers in names are those of the source.

Columns and labels:
[1] = Differential scanning calorimetry (DSC); type: physicochemical; conditions: temperature-induced unfolding
Procedure: Thermal stability of the two candidates was investigated using DSC by measuring midpoint of transition (Tm) of temperature-induced unfolding. The Tm value of the major unfolding transition for h38C2 was 73.5° C.

[2] = Intrinsic tryptophan fluorescence thermal unfolding; type: physicochemical
Excerpt: Thermal stability of the two candidates was also investigated using intrinsic protein tryptophan fluorescence by measuring midpoint of transition (Tm-FL) of temperature-induced unfolding. This assay monitors changes in tertiary structure semi-quantitatively upon unfolding induced by high temperature.

[3] = set-up: species or system Swiss-Webster mice; conditions: mouse, in vivo, sc
Procedure: The PK of FGF21 antibody conjugates were examined in mice after IV or SC administration. […] Antibody conjugates concentrations in serum were determined using an ELISA which captured the FGF21 portion of the antibody conjugates through a monoclonal anti-hFGF21 antibody bound to a 96-well plate. FGF21 antibody conjugates bound to the plate were detected through an anti-hFc monoclonal antibody, and concentrations were determined using a standard curve of the PK dosing solution diluted into serum-containing assay buffer. SC bioavailability was calculated as the ratio of the area-under the curve (AUC) of the SC serum concentration profile divided by the AUC of the IV serum concentration profile.

ob/ob mice = assay: Mouse efficacy in ob/ob mice (OGTT, body weight, liver, gene expression); type: in vivo; conditions: ob/ob mice; for mean glucose AUC % during OGTT: single dose 10 mg/ml as printed (FIG. 6B)
Procedure: The efficacy of FGF21 antibodies conjugates was evaluated in two murine obese insulin resistant models—ob/ob mice and high-fat diet-induced obese mice. For both models, male mice (6-8 weeks of age for ob/ob, 12-14 weeks of age for DIO with high-fat diet initiated at 6 weeks of age) were housed 2-4/cage and FGF21 antibody conjugates were administered by SC injection. Body weight was measured daily in the morning. Glucose tolerance was assessed by oral glucose tolerance test. Briefly, mice were fasted for 4-5 hrs in the morning of the day of testing. A basal blood sample was obtained and blood glucose levels were determined using a portable glucometer. Following basal sample, glucose was administered by oral gavage, and blood samples were drawn from 15 to 120 mins thereafter.
For […] expression, frozen visceral WAT samples collected from the in vivo efficacy studies were homogenized. Total RNA was extracted from the tissue homogenates, and Glut1 and GAPDH mRNA expression was measured using a Quantitect Probe RT-PCR kit and running a quantitative real time PCR reaction in a Taqman machine (Applied Biosystems). The effect of treatment was determined by a fold change in Glut1 mRNA levels normalized by the GAPDH mRNA levels from each sample.

[4] = tested on: Glut1 mRNA expression in differentiated 3T3-L1 adipocytes; assay: Glut1 Taqman assay; type: cell-based; conditions: differentiated 3T3-L1 adipocytes, 6 hrs; read-out: EC50 in Glut1 Taqman assay
Procedure: Differentiated 3T3-L1 adipocytes were used to measure the Glut1 mRNA expression by qPCR method. Overnight serum starved day 10-14 differentiated 3T3-L1 adipocytes were treated with compounds for 6 hrs. Total RNA was extracted from these cells, and Glut1 and GAPDH mRNA expression was measured using a Quantitect Probe RT-PCR kit and running a quantitative real time PCR reaction in a Taqman machine (Applied Biosystems®). The bioactivity of the compounds was determined by a fold change in Glut1 mRNA levels normalized by the GAPDH mRNA levels from each sample. EC50 values as measurements of the potency of the compounds were obtained from the dose response curves in the assay.
3T3-L1 adipocytes were seeded at day 8 in 24-well tissue culture plates (Falcon®, Cat#353047), and incubated in DMEM complete medium (10% FBS, 2 mM L-glutamine, 1% P/S) at 37° C., 5% CO2. […] The medium was aspirated, and then RNA extracted from the cells using the RNeasy mini Kit according to the manufacturer's instructions. RNA was measured at A260 nm using the Spectramax® Plus spectrophotometer.

[5] = tested on: Differentiated 3T3-L1 adipocytes; assay: Glucose uptake assay; type: cell-based; conditions: 3T3-L1 adipocytes, 24 hrs
Procedure: Differentiated 3T3-L1 adipocytes were treated with compounds in the absence of serum for 24 hrs. Cells were then incubated with ^14C-2-deoxyglucose for 1 hr and glucose uptake into the cells was quantitated in Wallac 1450 MicroBeta (Trilux) instrument. Glucose uptake was expressed in counts per min (CPM). EC50 values as measurements of the potency of the compounds were obtained from the dose response curves in the assay.

[6] = type: physicochemical
Procedure: FGF21ΔH-D79C mutant protein was produced in E. coli and purified as described above. FGF21ΔH-D79C was expressed from 1 L of culture. A 150 mg inclusion body was obtained and 85 mg purified protein was obtained, representing a 60% yield. To test the stability of FGF21ΔH-D79C as well as FGF21ΔH (SEQ ID NO:2), freshly thawed samples were kept at 4° C. over seven days, and examined for their integrity by RP-HPLC, SEC_HPLC, Ellman assay and SDS-PAGE on day 0, 3 and 7. […] PBS (pH7.4) and 20 mM Tris-HCl 50 mM NaCl (pH7.5) made no significant difference of stability of FGF21ΔH-D79C.
It is possible that the solubility of FGF21ΔH-D79C may be reduced at pH6.0. The stability of FGF21ΔH-D79C was examined upon multiple freeze/thaw cycles. The proteins were repeated to freeze (−80 C) and thaw (4° C.) 9 times.

Molecule: h38C2: humanized aldolase catalytic antibody h38C2 IgG1, SEQ ID NOS:25 and 26
- Tm of the major unfolding transition (DSC) [1]: 73.5 °C
- Tm-FL of the major unfolding transition [2]: approximately 74.1 °C

B1: Ab-L1-FGF21ΔH-H125C: FGF21ΔH-H125C combined with L1 at H125C and conjugated with h38C2 (conjugate, listed as Homo sapiens)
chain: PIPDSSPLLQFGGQVRQRYLYTDDAQQTEAHLEIREDGTVGGAADQSPESLLQLKALKPGVIQILGVKTSRFLCQRPDGALYGSLHFDPEACSFRELLLEDGYNVYQSEAHGLPLHLPGNKSPHRDPCPRGPARFLPLPGLPPALPEPPGILAPQPPDVGSSDPLSMVGPSQGRSPSYAS
modifications: conjugated via L1 linker to h38C2 antibody
- SC bioavailability [3]: 67%
- body weight gain (ob/ob mice): reduce body weight gain
- glucose tolerance (ob/ob mice): improve glucose tolerance
- Mean Glucose AUC (% of vehicle control) during OGTT (ob/ob mice; single SC dose 1 mg/kg (FIGS. 4A, 4B)): 87 % of vehicle control
- Mean Glucose AUC (% of vehicle control) during OGTT (ob/ob mice; single SC dose 3 mg/kg (FIGS. 4A, 4B)): 66 % of vehicle control
- Cumulative body weight change, mean body weight (ob/ob mice; single dose 10 mg/kg (FIG. 6A)): 0.8 g
- mean glucose AUC % during OGTT (ob/ob mice): 51%
- Tm of the major unfolding transition (DSC) [1]: 79 °C
- Tm-FL of the major unfolding transition [2]: ~79.7 °C
- EC50 [4]: 3.2 nM

B2: FGF21ΔH-K56-K59R-K69R-K122R: FGF21 lysine mutant, SEQ ID NO:18 (protein, listed as Homo sapiens)
chain: B1 chain with K58R, K68R, K121R, C128A, L145P, P146L
- EC50 [4]: 0.9 nM
- EC50 [5]: 5.5 nM

B3: FGF21ΔH-D79C: FGF21 cysteine mutant, SEQ ID NO:13 (protein, listed as Homo sapiens)
chain: B1 chain with D78C, C128A
- Cumulative body weight change, mean body weight (ob/ob mice; single dose 2 mg/kg (FIG. 6A)): 2.1 g
- mean glucose AUC % during OGTT (ob/ob mice): 54%
- stability upon freeze/thaw cycles [6]: Neither sample showed any difference
- fraction oxidized at pH 6.0 ([6]; 4° C., three-day incubation): more than half
- stability at neutral pH 7.4 ([6]; pH 7.4): stable
- EC50 [4]: 2.1 nM

B4: FGF21ΔH-K56R-K59-K69R-K122R: FGF21 lysine mutant, SEQ ID NO:19 (protein, listed as Homo sapiens)
chain: B1 chain with K55R, K68R, K121R, C128A, L145P, P146L
- EC50 [4]: 0.6 nM
- EC50 [5]: 0.9 nM

B5: FGF21ΔH-K56R-K59R-K69-K122R: FGF21 lysine mutant, SEQ ID NO:20 (protein, listed as Homo sapiens)
chain: B1 chain with K55R, K58R, K121R, C128A, L145P, P146L
- EC50 [4]: 1.3 nM
- EC50 [5]: 5.2 nM

B6: FGF21ΔH-K56-K59R-K69R-K122: FGF21 lysine mutant, SEQ ID NO:21 (protein, listed as Homo sapiens)
chain: B1 chain with K55R, K58R, K68R, C128A, L145P, P146L
- EC50 [4]: 2.6 nM
- EC50 [5]: 1.7 nM
